Experimental data taken from US10829528B2, “Therapeutic agents for neurological and psychiatric disorders” (VIB VZW, priority 2016, dated 2020).

Assays:
[1] = biological target: T1, sushi1 domain of GABABR1a (Homo sapiens, UniProt Q9UBS5); experiment: Isothermal titration calorimetry (ITC) with purified sushi1; type: binding; conditions: 25° C., read-out: dissociation constant (KD)
T1 construct: made in house
Protocol: We first determined which GABAB subunit and isoform sAPPα bound. The GABABR is comprised of two subunits, the GABABR1 and the GABABR2 subunit. GABABR1 is present as two main isoforms (1a and 1b), with the only difference between these isoforms being the presence of two protein-binding sushi repeats in the ectodomain of GABABR1a (FIG. 1A-B). […] The sequence of the Sushi domain 1 is […].
All ITC experiments were carried out on a MicroCal iTC200 system. For ITC experiments involving APP constructs expressed in HEK293 cells, the purified GABABR1a-Sushi1 domain, sAPPα, CuBDAcD, AcD and CuBD constructs were buffer-exchanged by size exclusion chromatography in 20 mM Na-HEPES pH 7.0, 150 mM NaCl supplemented with 5 mM CaCl2. Concentrated samples were diluted and degassed before the experiment at the concentrations reported in the FIG. legends. sAPP fragments (all of them at 30 μM) were placed in the MicroCal sample cell and matching buffer was placed in the reference cell. Sushi1 (300 μM) was in the syringe and was injected into the cell in a series of 1 μL injections at 25° C. All the datasets were subtracted with a reference data consisting of serial injections of Sushi1 in the cell, containing buffer only under the same conditions. For ITC experiments involving synthetic APP peptides, the Sushi-1 protein was dialysed overnight to PBS buffer. […]

[2] = system: Schaffer collateral (SC) synapses in mouse hippocampus; experiment: fEPSP field recordings at Schaffer collateral synapses in hippocampal slices; type: cell-based
Protocol: We assessed the effect of sAPPα on the synaptic properties of Schaffer collateral (SC) synapses in mouse hippocampus. […] As change in probability of neurotransmitter release inversely correlates with a change in short-term facilitation, we applied a burst of 5 stimuli at 3 different frequencies (20, 50, and 100 Hz) to induce short-term facilitation at the SC. […] Preincubation with the GABABR antagonist CGP54626 (CGP, 10 μM) for 20 min before the incubation with sAPPα blocked its effects on the peak amplitude of the fESPS and the input/output slopes (FIG. 10f-g). Accordingly, CGP occluded sAPPα-induced augmentation of short-term facilitation at 20, 50, and 100 Hz burst frequencies (FIG. 10h-j).
On the day of recording the brain of a 2-month-old Balb/c male mouse was quickly removed and 400 μm-thick horizontal slices were prepared in an ice-cold oxygenated buffer containing (in mM): sucrose, 182; KCl, 2.5; MgSO4, 2; NaH2PO4, 1.25; NaHCO3, 25; CaCl2), 0.8; MgCl2, 5; glucose, 25; ascorbate, 1; HEPES, 20. The slicing procedure was performed using a Leica VT1200 vibrating microtome. Slices were then transferred to a submerged recovery chamber at room temperature containing oxygenated (95% 02 and 5% C02) storage artificial cerebrospinal fluid (ACSF) for 30 min before the incubations (see below). The storage ACSF contained, in mM: NaCl, 100; KCl, 2.5; MgSO4, 2; NaH2PO4, 1.25; NaHCO3, 25; CaCl2), 1.2; MgCl2, 3; glucose, 20; ascorbate, 1; sodium pyruvate,3 and HEPES, 20. The slices were incubated in the incubation chambers perfused with oxygenated storage ACSF containing the experimental agents for 90 min before performing field recordings: In the incubation chamber, control slices were perfused with normal storage ACSF while sAPPα slices were perfused with storage ACSF containing 1 μM sAPPα. CGP slices were perfused with storage ACSF containing 10 μM CGP54626 (Tocris). CGP+sAPPα slices were preincubated in the chamber perfused with ACSF+CGP before being transferred into the chamber perfused with storage ACSF implemented with 10 μM CGP54626+1 μM sAPPα. All recordings were performed at 32-33° C. in a recording chamber perfused with ACSF (4 ml/min) on the stage of an Olympus BX51WI microscope equipped with IR optics and oblique illumination. Recording ACSF contains, in mM: NaCl, 129; KCl, 2.5; CaCl2), 1.2; MgCl2, 1.2; NaHCO3, 25; NaH2PO4, 1.25; glucose, 15. Stimulation of the Schaffer-collateral was delivered through a glass suction electrode (10-20 μm tip) filled with ACSF. fEPSPs were recorded using a glass pipette containing ACSF (1-2 MΩ) from proximal synapses in the CA1 stratum radiatum. Field recording experiments were analyzed using Clampfit.

T1 sequence (Q9UBS5 26-97): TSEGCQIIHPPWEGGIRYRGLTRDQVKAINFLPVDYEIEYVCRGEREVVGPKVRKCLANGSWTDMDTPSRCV

B1: sAPPα: soluble amyloid precursor protein α ectodomain; mouse APP695 18-612aa, Fc tag cleaved (protein)
chain: LEVPTDGNAGLLAEPQIAMFCGKLNMHMNVQNGKWESDPSGTKTCIGTKEGILQYCQEVYPELQITNVVEANQPVTIQNWCKRGRKQCKTHTHIVIPYRCLVGEFVSDALLVPDKCKFLHQERMDVCETHLHWHTVAKETCSEKSTNLHDYGMLLPCGIDKFRGVEFVCCPLAEESDSVDSADAEEDDSDVWWGGADTDYADGGEDKVVEVAEEEEVADVEEEEADDDEDVEDGDEVEEEAEEPYEEATERTTSTATTTTTTTESVEEVVRVPTTAASTPDAVDKYLETPGDENEHAHFQKAKERLEAKHRERMSQVMREWEEAERQAKNLPKADKKAVIQHFQEKVESLEQEAANERQQLVETHMARVEAMLNDRRRLALENYITALQAVPPRPHHVFNMLKKYVRAEQKDRQHTLKHFEHVRMVDPKKAAQIRSQVMTHLRVIYERMNQSLSLLYNVPAVAEEIQDEVDELLQKEQNYSDDVLANMISEPRISYGNDALMPSLTETKTTVELLPVNGEFSLDDLQPWHPFGVDSVPANTENEVEPVDARPAADRGLTTRPGSGLTNIKTEEISEVKMDAEFGHDSGFEVRHQK
For B1, the Kd [1] was 431 nM, the “effect on fEPSP amplitude” value ([2]; 1 μM sAPPα incubation, 0.1 Hz stimulation) was “reducing fEPSP amplitude” and the “decrease in the slope of the input/output curve” value ([2]; 1 μM sAPPα incubation, 0.1 Hz stimulation, 30-150 μA) was 23%. The “short-term facilitation versus control slices” value ([2]; burst of 5 stimuli at 20, 50 and 100 Hz, 1 μM sAPPα) was “significantly higher”.
